Experimental data as given in US8734776B2 (ZymoGenetics, Inc., priority 2003, dated 2014).

T1: zcyto24 (Mus musculus, UniProt Q4VK74)
T1 sequence (Q4VK74 20-193): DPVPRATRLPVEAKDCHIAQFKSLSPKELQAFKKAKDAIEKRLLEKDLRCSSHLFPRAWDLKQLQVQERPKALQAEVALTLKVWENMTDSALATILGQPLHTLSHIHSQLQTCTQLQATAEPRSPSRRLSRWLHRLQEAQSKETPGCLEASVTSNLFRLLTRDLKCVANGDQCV

T2: zcyto20 (Homo sapiens, UniProt Q8IZJ0)
T2 sequence (Q8IZJ0 26-200): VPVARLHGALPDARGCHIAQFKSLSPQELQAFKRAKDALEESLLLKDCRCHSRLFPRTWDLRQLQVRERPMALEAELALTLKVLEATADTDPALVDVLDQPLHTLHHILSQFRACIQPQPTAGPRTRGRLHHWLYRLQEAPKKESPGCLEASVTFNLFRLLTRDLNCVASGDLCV

B1: Muzcytor19-Ig: murine zcytor19-Ig homodimer soluble receptor (protein)
chain: RPRLAPPRNVTLFSQNFTVYLTWLPGLGSPPNVTYFVTYQSYIKTGWRPVEHCAGIKALVCPLMCLKKLNLYSKFKGRVQAASAHGRSPRVESRYLEYLFDVELAPPTLVLTQMEKILRVNATYQLPPCMPSLELKYQVEFWKEGLGSKTLFPDTPYGQPVQIPLQQGASRRHCLSARTVYTLIDIKYSQFSEPSCIFLEAPGDKRA
modifications: left off: a dimerising Fc or GST
notes: murine zcytor19-Ig homodimer soluble receptor
B2: zcyto25: mouse IL-28, SEQ ID NO:10 (protein, listed as Mus musculus)
chain: MKPETAGGHMLLLLLPLLLAAVLTRTQADPVPRATRLPVEAKDCHIAQFKSLSPKELQAFKKAKGAIEKRLLEKDMRCSSHLISRAWDLKQLQVQERPKALQAEVALTLKVWENINDSALTTILGQPLHTLSHIHSQLQTCTQLQATAEPKPPSRRLSRWLHRLQEAQSKETPGCLEDSVTSNLFQLLLRDLKCVASGDQCV
modifications: SIGNAL (1)...(28)
B3: IL-28B: human IL-28B, previously designated zcyto22, SEQ ID NO:6 (protein, listed as Homo sapiens)
chain: MKLDMTGDCMPVLVLMAAVLTVTGAVPVARLRGALPDARGCHIAQFKSLSPQELQAFKRAKDALEESLLLKDCKCRSRLFPRTWDLRQLQVRERPVALEAELALTLKVLEATADTDPALGDVLDQPLHTLHHILSQLRACIQPQPTAGPRTRGRLHHWLHRLQEAPKKESPGCLEASVTFNLFRLLTRDLNCVASGDLCV
modifications: SIGNAL (1)...(25)
B4: Huzcytor19-Fc: human zcytor19-Fc homodimer soluble receptor (protein)
chain: RPRLAPPQNVTLLSQNFSVYLTWLPGLGNPQDVTYFVAYQSSPTRRRWREVEECAGTKELLCSMMCLKKQDLYNKFKGRVRTVSPSSKSPWVESEYLDYLFEVEPAPPVLVLTQTEEILSANATYQLPPCMPPLDLKYEVAFWKEGAGNKTLFPVTPHGQPVQITLQPAASEHHCLSARTIYTFSVPKYSKFSKPTCFLLEVPEANWA
modifications: left off: a dimerising Fc or GST
notes: human zcytor19-Fc homodimer soluble receptor

Key:
zcyto24 = target: T1, zcyto24; assay: Inhibition of ligand-induced ISRE signaling by soluble receptors, zcyto24; assay type: cell-based; details: ligand Zcyto24 10 ng/ml; soluble receptor 10 micrograms/ml
Source text: (§1) A signal transduction reporter assay can be used to show the inhibitor properties of zcytor19-Fc4 homodimeric and zcytor19-Fc/CRF2-4-Fc heterodimeric soluble receptors on zcyto20, zcyto21 and zcyto24 signaling Human embryonal kidney (HEK) cells overexpressing the zcytor19 receptor are transfected with a reporter plasmid containing an interferon-stimulated response element (ISRE) driving transcription of a luciferase reporter gene. Luciferase activity following stimulation of transfected cells with ligands (including zcyto20 (SEQ ID NO:2), zcyto21 (SEQ ID NO:4), zcyto24 (SEQ ID NO: 8)) reflects the interaction of the ligand with soluble receptor.
(§2) 293 HEK cells overexpressing zcytor19 were transfected as follows: 700,000 293 cells/well (6 well plates) were plated approximately 18 h prior to transfection in 2 milliliters DMEM+10% fetal bovine serum. Per well, 1 microgram pISRE-Luciferase DNA (Stratagene) and 1 microgram pIRES2-EGFP DNA (Clontech,) were added to 6 microliters Fugene 6 reagent (Roche Biochemicals) in a total of 100 microliters DMEM. This transfection mix was added 30 minutes later to the pre-plated 293 cells. Twenty-four hours later the transfected cells were removed from the plate using trypsin-EDTA and replated at approximately 25,000 cells/well in 96 well microliter plates. Approximately 18 h prior to ligand stimulation, media was changed to DMEM+0.5% FBS.
(§3) The signal transduction reporter assays were done as follows: Following an 18 h incubation at 37° C. in DMEM+0.5% FBS, transfected cells were stimulated with 10 ng/ml zcyto20, zcyto21 or zcyto24 and 10 micrograms/ml of the following soluble receptors; human zcytor19-Fc homodimer, human zcytor19-Fc/human CRF2-4-Fc heterodimer, human CRF2-4-Fc homodimer, murine zcytor19-Ig homodimer. Following a 4-hour incubation at 37° C., the cells were lysed, and the relative light units (RLU) were measured on a luminometer after addition of a luciferase substrate. The results obtained are shown as the percent inhibition of ligand-induced signaling in the presence of soluble receptor relative to the signaling in the presence of PBS alone.

zcyto20 = target: T2, zcyto20; assay: Inhibition of ligand-induced ISRE signaling by soluble receptors, zcyto20; assay type: cell-based; details: soluble receptor 10 micrograms/ml; for Percent Inhibition of Ligand-induced ISRE Signaling by Soluble Receptors: ligand Zcyto20 10 ng/ml; for effect on ligand-induced signaling: zcyto20, zcyto21 or zcyto24 10 ng/ml
Source text: as §1, §2, §3

zcyto21 = zcyto21 (Homo sapiens, UniProt Q8IU54); assay: Inhibition of ligand-induced ISRE signaling by soluble receptors, zcyto21; assay type: cell-based; details: ligand Zcyto21 10 ng/ml; soluble receptor 10 micrograms/ml
Sequence of zcyto21 (Q8IU54 20-200): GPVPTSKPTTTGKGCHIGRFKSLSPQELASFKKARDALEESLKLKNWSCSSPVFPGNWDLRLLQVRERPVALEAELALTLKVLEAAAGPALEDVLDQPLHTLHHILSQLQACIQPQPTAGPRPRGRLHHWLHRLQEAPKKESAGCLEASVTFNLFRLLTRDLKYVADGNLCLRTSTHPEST
Source text: as §1, §2, §3

[1] = tested on: encephelomyocarditis virus; assay: Antiviral assay: cytopathic effect in HeLa cells; assay type: cell-based, human
[2] = tested on: encephelomyocarditis virus; assay: Antiviral assay: cytopathic effect in L929 cells; assay type: cell-based, mouse
[3] = relative CM concentration .008X
[4] = relative CM concentration .0156X
[5] = relative CM concentration .0325X
[6] = relative CM concentration .0625X
[7] = relative CM concentration .125X

Molecule | Percent Inhibition of Ligand-induced ISRE Signaling by Soluble Receptors (zcyto24) | Percent Inhibition of Ligand-induced ISRE Signaling by Soluble Receptors (zcyto20) | Percent Inhibition of Ligand-induced ISRE Signaling by Soluble Receptors (zcyto21) | effect on ligand-induced signaling (zcyto20) | Percentage Cytopathic Effect [1, 3] | Percentage Cytopathic Effect [1, 4] | Percentage Cytopathic Effect [1, 5] | Percentage Cytopathic Effect [1, 6] | Percentage Cytopathic Effect [1, 7] | Percentage Cytopathic Effect ([1]; relative CM concentration .25X) | Percentage Cytopathic Effect ([1]; relative CM concentration .5X) | Percentage Cytopathic Effect ([2]; relative CM conc. .008X) | Percentage Cytopathic Effect ([2]; relative CM conc. .0156X) | Percentage Cytopathic Effect ([2]; relative CM conc. .0325X) | Percentage Cytopathic Effect ([2]; relative CM conc. .0625X) | Percentage Cytopathic Effect ([2]; relative CM conc. .125X) | Percentage Cytopathic Effect ([2]; relative CM conc. .25X) | Percentage Cytopathic Effect ([2]; relative CM conc. .5X)
Huzcytor19-Fc/huCRF2-4-Fc: human zcytor19-Fc/human CRF2-4-Fc heterodimer soluble receptor | 47% | 16% | 16% | – | – | – | – | – | – | – | – | – | – | – | – | – | – | –
HuCRF2-4-Fc: human CRF2-4-Fc homodimer soluble receptor | 82% | 80% | 79% | No significant effects | – | – | – | – | – | – | – | – | – | – | – | – | – | –
B1 | 89% | 91% | 103% | No significant effects | – | – | – | – | – | – | – | – | – | – | – | – | – | –
B2 | – | – | – | – | 10% | 5% | 5% | 0% | 0% | 0% | 0% | 87% | 87% | 87% | 87% | 87% | 87% | 87%
B3 | – | – | – | – | 0% | 0% | 0% | 0% | 0% | 0% | 0% | 87% | 87% | 87% | 87% | 87% | 87% | 87%
B4 | 90% | 92% | 45% | – | – | – | – | – | – | – | – | – | – | – | – | – | – | –
